Test results as given in paper PMC10995880 (iScience, 2024).

Molecular target: His6-PEX19-WT (1–299 aa), non-farnesylated (human, UniProt P40855 1-299)
Experiment: pull-down; His6-PEX19 pull-down of Flag-PEX3ΔN variants at the same concentrations of PEX19 and PEX3 as in the PEX26^Bpa crosslinking experiments (400 nM)
Details: both partners purified

His6-PEX19-WT (1–299 aa), non-farnesylated, sequence (P40855 whole entry, the tested form may be a part): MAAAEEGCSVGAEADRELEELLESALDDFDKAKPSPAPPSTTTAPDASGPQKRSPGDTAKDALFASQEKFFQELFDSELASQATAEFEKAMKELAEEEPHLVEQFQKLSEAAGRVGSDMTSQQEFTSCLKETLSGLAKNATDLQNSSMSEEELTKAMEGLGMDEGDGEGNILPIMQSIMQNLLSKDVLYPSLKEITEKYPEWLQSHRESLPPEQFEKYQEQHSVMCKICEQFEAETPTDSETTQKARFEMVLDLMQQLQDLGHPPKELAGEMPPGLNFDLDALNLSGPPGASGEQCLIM

| binding result | Binder |
| --- | --- |
| binds | Flag-PEX3ΔN-G138E (domain or fragment, UniProt P56589 41-373, looked up) QEREAAEYIAQARRQYHFESNQRTCNMTVLSMLPTLREALMQQLNSESLTALLKNRPSNKLEIWEDLKIISFTRSTVAVYSTCMLVVLLRVQLNIIGEYIYLDNAAVGKNGTTILAPPDVQQQYLSSIQHLLGDGLTELITVIKQAVQKVLGSVSLKHSLSLLDLEQKLKEIRNLVEQHKSSSWINKDGSKPLLCHYMMPDEETPLAVQACGLSPRDITTIKLLNETRDMLESPDFSTVLNTCLNRGFSRLLDNMAEFFRPTEQDLQHGNSMNSLSSVSLPLAKIIPIVNGQIHSVCSETPSHFVQDLLTMEQVKDFAANVYEAFSTPQQLEK |
| binds | Flag-PEX3ΔN-M72K (domain or fragment, UniProt P56589 41-373, looked up) QEREAAEYIAQARRQYHFESNQRTCNMTVLSKLPTLREALMQQLNSESLTALLKNRPSNKLEIWEDLKIISFTRSTVAVYSTCMLVVLLRVQLNIIGGYIYLDNAAVGKNGTTILAPPDVQQQYLSSIQHLLGDGLTELITVIKQAVQKVLGSVSLKHSLSLLDLEQKLKEIRNLVEQHKSSSWINKDGSKPLLCHYMMPDEETPLAVQACGLSPRDITTIKLLNETRDMLESPDFSTVLNTCLNRGFSRLLDNMAEFFRPTEQDLQHGNSMNSLSSVSLPLAKIIPIVNGQIHSVCSETPSHFVQDLLTMEQVKDFAANVYEAFSTPQQLEK |
